Measured values reported in patent publication US20210130436A1 (published 2021).

B1: CD80 WT IgV-Fc (Fc fusion, not shown: a dimerising Fc or GST)
chain: VIHVTKEVKEVATLSCGHNVSVEELAQTRIYWQKEKKMVLTMMSGDMNIWPEYKNRTIFDITNNLSIVILALRPSDEGTYECVVLKYEKDAFKREHLAEVTLSVKAD
notes: also called WT CD80 IgV-Fc; wild-type CD80 IgV-Fc
B2: variant CD80 IgV-Fc D46V/M47I/A71G (Fc fusion, not shown: a dimerising Fc or GST)
chain: VIHVTKEVKEVATLSCGHNVSVEELAQTRIYWQKEKKMVLTMMSGVINIWPEYKNRTIFDITNNLSIVILGLRPSDEGTYECVVLKYEKDAFKREHLAEVTLSVKAD
B3: variant CD80 IgV-Fc E35D/D46E (Fc fusion, not shown: a dimerising Fc or GST)
chain: VIHVTKEVKEVATLSCGHNVSVEELAQTRIYWQKDKKMVLTMMSGEMNIWPEYKNRTIFDITNNLSIVILALRPSDEGTYECVVLKYEKDAFKREHLAEVTLSVKAD
B4: variant CD80 IgV-Fc E35D/D46E/A91G (Fc fusion, not shown: a dimerising Fc or GST)
chain: VIHVTKEVKEVATLSCGHNVSVEELAQTRIYWQKDKKMVLTMMSGEMNIWPEYKNRTIFDITNNLSIVILALRPSDEGTYECVVLKYEKDGFKREHLAEVTLSVKAD
B5: variant CD80 IgV-Fc E35D/D46E/L85M (Fc fusion, not shown: a dimerising Fc or GST)
chain: VIHVTKEVKEVATLSCGHNVSVEELAQTRIYWQKDKKMVLTMMSGEMNIWPEYKNRTIFDITNNLSIVILALRPSDEGTYECVVMKYEKDAFKREHLAEVTLSVKAD
B6: variant CD80 IgV-Fc E35D/D46E/M47I (Fc fusion, not shown: a dimerising Fc or GST)
chain: VIHVTKEVKEVATLSCGHNVSVEELAQTRIYWQKDKKMVLTMMSGEINIWPEYKNRTIFDITNNLSIVILALRPSDEGTYECVVLKYEKDAFKREHLAEVTLSVKAD
B7: variant CD80 IgV-Fc E35D/M43I/D46E/A71G/L85M (Fc fusion, not shown: a dimerising Fc or GST)
chain: VIHVTKEVKEVATLSCGHNVSVEELAQTRIYWQKDKKMVLTMISGEMNIWPEYKNRTIFDITNNLSIVILGLRPSDEGTYECVVMKYEKDAFKREHLAEVTLSVKAD
B8: variant CD80 IgV-Fc E35D/M47I/N48K/I61F (Fc fusion, not shown: a dimerising Fc or GST)
chain: VIHVTKEVKEVATLSCGHNVSVEELAQTRIYWQKDKKMVLTMMSGDIKIWPEYKNRTIFDFTNNLSIVILALRPSDEGTYECVVLKYEKDAFKREHLAEVTLSVKAD
B9: variant CD80 IgV-Fc E35D/M47L/A71G/L85M (Fc fusion, not shown: a dimerising Fc or GST)
chain: VIHVTKEVKEVATLSCGHNVSVEELAQTRIYWQKDKKMVLTMMSGDLNIWPEYKNRTIFDITNNLSIVILGLRPSDEGTYECVVMKYEKDAFKREHLAEVTLSVKAD
B10: variant CD80 IgV-Fc E35D/M47V (Fc fusion, not shown: a dimerising Fc or GST)
chain: VIHVTKEVKEVATLSCGHNVSVEELAQTRIYWQKDKKMVLTMMSGDVNIWPEYKNRTIFDITNNLSIVILALRPSDEGTYECVVLKYEKDAFKREHLAEVTLSVKAD
B11: variant CD80 IgV-Fc E35D/T41S/N48I (Fc fusion, not shown: a dimerising Fc or GST)
chain: VIHVTKEVKEVATLSCGHNVSVEELAQTRIYWQKDKKMVLSMMSGDMTIWPEYKNRTIFDITNNLSIVILALRPSDEGTYECVVLKYEKDAFKREHLAEVTLSVKAD
notes: also called E35D/T41S/N48T
B12: variant CD80 IgV-Fc H18Y/E35D (Fc fusion, not shown: a dimerising Fc or GST)
chain: VIHVTKEVKEVATLSCGYNVSVEELAQTRIYWQKDKKMVLTMMSGDMNIWPEYKNRTIFDITNNLSIVILALRPSDEGTYECVVLKYEKDAFKREHLAEVTLSVKAD
B13: variant CD80 IgV-Fc H18Y/E35D/M47L/A71G/A91S (Fc fusion, not shown: a dimerising Fc or GST)
chain: VIHVTKEVKEVATLSCGYNVSVEELAQTRIYWQKDKKMVLTMMSGDLNIWPEYKNRTIFDITNNLSIVILGLRPSDEGTYECVVLKYEKDSFKREHLAEVTLSVKAD
B14: variant CD80 IgV-Fc M43I/M47L/A71G (Fc fusion, not shown: a dimerising Fc or GST)
chain: VIHVTKEVKEVATLSCGHNVSVEELAQTRIYWQKEKKMVLTMISGDLNIWPEYKNRTIFDITNNLSIVILGLRPSDEGTYECVVLKYEKDAFKREHLAEVTLSVKAD
B15: variant CD80 IgV-Fc M47I/A71G (Fc fusion, not shown: a dimerising Fc or GST)
chain: VIHVTKEVKEVATLSCGHNVSVEELAQTRIYWQKEKKMVLTMMSGDINIWPEYKNRTIFDITNNLSIVILGLRPSDEGTYECVVLKYEKDAFKREHLAEVTLSVKAD
B16: variant CD80 IgV-Fc Q27H/E35D/M47I (Fc fusion, not shown: a dimerising Fc or GST)
chain: VIHVTKEVKEVATLSCGHNVSVEELAHTRIYWQKDKKMVLTMMSGDINIWPEYKNRTIFDITNNLSIVILALRPSDEGTYECVVLKYEKDAFKREHLAEVTLSVKAD
B17: variant CD80 IgV-Fc Q27L/E35D/M47V/I61V/L85M (Fc fusion, not shown: a dimerising Fc or GST)
chain: VIHVTKEVKEVATLSCGHNVSVEELALTRIYWQKDKKMVLTMMSGDVNIWPEYKNRTIFDVTNNLSIVILALRPSDEGTYECVVMKYEKDAFKREHLAEVTLSVKAD
B18: variant CD80 IgV-Fc V22A/E35D/M47L/A71G (Fc fusion, not shown: a dimerising Fc or GST)
chain: VIHVTKEVKEVATLSCGHNVSAEELAQTRIYWQKDKKMVLTMMSGDLNIWPEYKNRTIFDITNNLSIVILGLRPSDEGTYECVVLKYEKDAFKREHLAEVTLSVKAD
B19: variant CD80 IgV-Fc E35D/D46E/M47I/T62A/V68M/L85M/Y87C (Fc fusion, not shown: small tags and cut ends; a dimerising Fc or GST)
chain: VIHVTKEVKEVATLSCGHNVSVEELAQTRIYWQKDKKMVLTMMSGEINIWPEYKNRTIFDIANNLSIMILALRPSDEGTYECVVMKCEKDAFKREHLAEVTLSVKAD
B20: variant CD80 IgV-Fc Q33L/E35D/M47V/T62S/V68M/L85M (Fc fusion, not shown: small tags and cut ends; a dimerising Fc or GST)
chain: VIHVTKEVKEVATLSCGHNVSVEELAQTRIYWLKDKKMVLTMMSGDVNIWPEYKNRTIFDISNNLSIMILALRPSDEGTYECVVMKYEKDAFKREHLAEVTLSVKAD

How the values were obtained:
[1] = molecular target: T1, CD28 on Jurkat/IL2 reporter cells (human, UniProt P10747 19-220); assay: flow cytometry, Jurkat cells (CD28)
T1 construct: whole, on cells; Endogenous CD28 of Jurkat cells; also called Jurkats (CD28)

human PD-L1 on CHO cells [2] = molecular target: T2, human PD-L1 on CHO cells (human, UniProt Q9NZQ7 19-290); assay: flow cytometry; PD-L1 MFI over CD28 MFI
T2 construct: whole, on cells; CHO cells stably expressing PD-L1; also called huPD-L1
T2 sequence (Q9NZQ7 19-290): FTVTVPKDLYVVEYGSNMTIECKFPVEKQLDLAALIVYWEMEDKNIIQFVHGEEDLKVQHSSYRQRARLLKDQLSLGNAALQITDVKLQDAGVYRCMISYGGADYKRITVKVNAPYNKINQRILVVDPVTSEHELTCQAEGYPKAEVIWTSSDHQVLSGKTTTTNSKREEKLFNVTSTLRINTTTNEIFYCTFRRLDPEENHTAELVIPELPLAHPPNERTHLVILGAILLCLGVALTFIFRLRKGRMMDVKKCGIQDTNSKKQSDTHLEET

human CTLA4 on CHO cells [3] = molecular target: T3, human CTLA4 on CHO cells (human, UniProt P16410 36-223); assay: flow cytometry, CHO cells stably expressing CTLA4
T3 construct: whole, on cells; CHO cells stably expressing CTLA4; also called huCTLA4
T3 sequence (P16410 36-223): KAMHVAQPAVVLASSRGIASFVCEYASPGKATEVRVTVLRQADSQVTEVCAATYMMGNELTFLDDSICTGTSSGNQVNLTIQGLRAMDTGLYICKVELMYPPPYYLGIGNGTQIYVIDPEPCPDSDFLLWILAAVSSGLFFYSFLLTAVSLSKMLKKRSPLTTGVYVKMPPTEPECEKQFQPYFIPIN

human PD-L1 on CHO cells [4] = molecular target: T2, human PD-L1 on CHO cells; assay: flow cytometry, CHO cells stably expressing PD-L1
human CTLA4 on CHO cells [5] = molecular target: T3, human CTLA4 on CHO cells; assay: flow cytometry, CHO/CTLA4 cells; MFI relative to WT CD80
human PD-L1 on CHO cells [6] = molecular target: T2, human PD-L1 on CHO cells; assay: flow cytometry, CHO/PD-L1 cells; MFI relative to WT CD80
[7] = molecular target: T1, CD28 on Jurkat/IL2 reporter cells; assay: flow cytometry, Jurkat cells (CD28); MFI relative to WT CD80
[8] = molecular target: T4, human CTLA4 (huCTLA4), full-length, stably expressed on CHO cells (human, UniProt P16410 36-223); assay: flow cytometry, CHO cells expressing huCTLA4
T4 construct: whole, on cells
T4 sequence (P16410 36-223): as above

Binder	MFI at 33.3 nM [1]	Ratio of PDL1:CD28 (human PD-L1 on CHO cells [2])	MFI at 33.3 nM (human CTLA4 on CHO cells [3])	MFI at 33.3 nM (human PD-L1 on CHO cells [4])	Fold change to WT CD80 (human CTLA4 on CHO cells [5])	Fold change to WT CD80 (human PD-L1 on CHO cells [6])	Fold change to WT CD80 [7]	MFI at 33.3 nM [8]
B1	66 MFI	1 ratio	1920 MFI	70.3 MFI	1 fold	1 fold	1 fold	
B2	1320 MFI	6 ratio	28400 MFI	7330 MFI	14.8 fold	104 fold	20.1 fold	
B3	779 MFI	5 ratio	27900 MFI	3760 MFI	14.6 fold	53.4 fold	11.8 fold	
B4	3450 MFI	1 ratio	32200 MFI	2820 MFI	16.8 fold	40.1 fold	52.3 fold	
B5	164 MFI	18 ratio	30300 MFI	2880 MFI	15.8 fold	41 fold	2.5 fold	
B6	1000 MFI	4 ratio	21400 MFI	3790 MFI	11.2 fold	53.9 fold	15.2 fold	
B7	200 MFI	36 ratio	26900 MFI	7140 MFI	14 fold	102 fold	3 fold	
B8	816 MFI	7 ratio	25900 MFI	5630 MFI	13.5 fold	80 fold	12.4 fold	
B9	199 MFI	42 ratio	16600 MFI	8310 MFI	8.7 fold	118 fold	3 fold	
B10	461 MFI	6 ratio	20900 MFI	2940 MFI	10.9 fold	41.7 fold	7 fold	
B11	72.4 MFI	30 ratio	30300 MFI	2190 MFI	15.8 fold	31.2 fold	1.1 fold	
B12	479 MFI	7 ratio	26300 MFI	3530 MFI	13.7 fold	50.2 fold	7.3 fold	
B13	528 MFI	14 ratio	24200 MFI	7580 MFI	12.6 fold	108 fold	8 fold	
B14	1000 MFI	8 ratio	23300 MFI	7760 MFI	12.2 fold	110 fold	15.2 fold	
B15	823 MFI	6 ratio	27800 MFI	5100 MFI	14.5 fold	72.5 fold	12.5 fold	
B16	756 MFI	5 ratio	27500 MFI	3420 MFI	14.4 fold	48.7 fold	11.5 fold	
B17	230 MFI	12 ratio	27900 MFI	2700 MFI	14.6 fold	38.5 fold	3.5 fold	
B18	990 MFI	8 ratio	21900 MFI	8170 MFI	11.4 fold	116 fold	15 fold	
B19								17000 MFI
B20								86 MFI
